# B1: hMPV-2 mAb (antibody, V domains shown)
# VH: QVQLQQSGAEVKKPGASVKVSCKASGYTFTSYGISWVRQAPGQGLEWMGWISGYNGNTNYAQTFQGTFTMTTDTSTSTAYMELRRLRSGDTAVYYCARDRYYASGSYNGMDVWGQGTTVTVSS
# VL: QSALTQPPSASGAPGQRVTVSCSGSSSNVGSSSVYWYQQLPGTAPKLLIYRNNQRPSGVPDRFSGSKSGTSASLAISGLRSEDEADYYCAAWDDSLSGWVFGGGTKLTVLG
# notes: human IgG1
# Assays:
# hMPV078 = target: T1, hMPV078 (hMPV A, UniProt Q6WB98 19-102); assay: BLI, no stress
# T1 construct: T411C-Q434C, A140C-S149C
# Protocol: (§1) The OCTET HTX (Sartorius, Gottingen, Germany) instrument was used to evaluate the expression and conformational integrity for each mutant. All measurements were conducted at 30° C. temperature in 96-well black plates (Corning, Corning, NY) with a final volume of 240 μL per well at a constant agitation rate of 1000 RPM.
# (§2) Conformation integrity of hMPV A F protein mutants were evaluated by thermal stress experiments. Crude cell culture supernatants were normalized based on the results of the titer quantitation and then incubated for 1 hour at room temperature and two higher temperatures. […] Anti-Human IgG Fc Capture (AHC) biosensors were first equilibrated in PB before being dipped into more PB to establish the initial baseline. […] The mAb-bound biosensors were then dipped into the thermal stressed cell culture supernatants for 5 minutes. The kinetics analysis was done by OCTET data analysis software (version 12.0, Sartorius) based on curve fitting of the entire associate step.
# hMPV079 = target: T2, hMPV079 (hMPV A, UniProt Q6WB98 19-102); assay: BLI, no stress
# T2 construct: T411C-Q434C, A140C-S149C, A459P
# Protocol: as §1, §2
# hMPV081 = target: T3, hMPV081 (hMPV A, UniProt Q6WB98 19-102); assay: BLI, no stress
# T3 construct: T411C-Q434C, A140C-S149C, T365I
# Protocol: as §1, §2
# hMPV082 = target: T4, hMPV082 (hMPV A, UniProt Q6WB98 19-102); assay: BLI, no stress
# T4 construct: T411C-Q434C, A140C-S149C, G239A
# Protocol: as §1, §2
# hMPV083 = target: T5, hMPV083 (hMPV A, UniProt Q6WB98 19-102); assay: BLI, no stress
# T5 construct: T411C-Q434C, A140C-S149C, A459P, G239A, T49I, T365I
# Protocol: as §1, §2
# hMPV084 = target: T6, hMPV084 (hMPV A, UniProt Q6WB98 19-102); assay: BLI, no stress
# T6 construct: T411C-Q434C, L141C-A161C
# Protocol: as §1, §2
# hMPV085 = target: T7, hMPV085 (hMPV A, UniProt Q6WB98 19-102); assay: BLI, no stress
# T7 construct: T411C-Q434C, L141C-A161C, A459P
# Protocol: as §1, §2
# hMPV086 = target: T8, hMPV086 (hMPV A, UniProt Q6WB98 19-102); assay: BLI, no stress
# T8 construct: T411C-Q434C, L141C-A161C, T49I; also called hMP0086
# Protocol: as §1, §2
# hMPV087 = target: T9, hMPV087 (hMPV A, UniProt Q6WB98 19-102); assay: BLI, no stress
# T9 construct: T411C-Q434C, L141C-A161C, T365I
# Protocol: as §1, §2
# hMPV088 = target: T10, hMPV088 (hMPV A, UniProt Q6WB98 19-102); assay: BLI, no stress
# T10 construct: T411C-Q434C, L141C-A161C, G239A
# Protocol: as §1, §2
# hMPV089 = target: T11, hMPV089 (hMPV A, UniProt Q6WB98 19-102); assay: BLI, no stress
# T11 construct: T411C-Q434C, L141C-A161C, S149T
# Protocol: as §1, §2
# hMPV090 = target: T12, hMPV090 (hMPV A, UniProt Q6WB98 19-102); assay: BLI, no stress
# T12 construct: T411C-Q434C, L141C-A161C, A459P, G239A, T49I, S149T, T365I
# Protocol: as §1, §2
# hMPV097 = target: T13, hMPV097 (hMPV A, UniProt Q6WB98 19-102); assay: BLI, no stress
# T13 construct: T411C-Q434C, E146C-T160C, A459P, G239A, T49I, S149T, T365I
# Protocol: as §1, §2
# hMPV A F WT Control = hMPV A F WT Control (hMPV A, UniProt Q6WB98 19-102); assay: BLI, no stress
# Protocol: as §1, §2
# hMPV047 = target: T14, hMPV047 (hMPV A, UniProt Q6WB98 19-102); assay: BLI, 53C stress
# T14 construct: L141C-A159C
# Protocol: as §1, §2
# hMPV049 = target: T15, hMPV049 (hMPV A, UniProt Q6WB98 19-102); assay: BLI, 53C stress
# T15 construct: E146C-T160C
# Protocol: as §1, §2
# hMPV050 = target: T16, hMPV050 (hMPV A, UniProt Q6WB98 19-102); assay: BLI, 53C stress
# T16 construct: V148C-L158C
# Protocol: as §1, §2
# hMPV052 = target: T17, hMPV052 (hMPV A, UniProt Q6WB98 19-102); assay: BLI, 53C stress
# T17 construct: L66P
# Protocol: as §1, §2
# hMPV053 = target: T18, hMPV053 (hMPV A, UniProt Q6WB98 19-102); assay: BLI, 53C stress
# T18 construct: L110P
# Protocol: as §1, §2
# hMPV058 = target: T19, hMPV058 (hMPV A, UniProt Q6WB98 19-102); assay: BLI, 53C stress
# T19 construct: L187P
# Protocol: as §1, §2
# hMPV059 = target: T20, hMPV059 (hMPV A, UniProt Q6WB98 19-102); assay: BLI, 53C stress
# T20 construct: V449P
# Protocol: as §1, §2
# hMPV060 = target: T21, hMPV060 (hMPV A, UniProt Q6WB98 19-102); assay: BLI, 53C stress
# T21 construct: A459P
# Protocol: as §1, §2
# hMPV062 = target: T22, hMPV062 (hMPV A, UniProt Q6WB98 19-102); assay: BLI, 53C stress
# T22 construct: G121A
# Protocol: as §1, §2
# hMPV063 = target: T23, hMPV063 (hMPV A, UniProt Q6WB98 19-102); assay: BLI, 53C stress
# T23 construct: G239A
# Protocol: as §1, §2
# hMPV066 = target: T24, hMPV066 (hMPV A, UniProt Q6WB98 19-102); assay: BLI, 53C stress
# T24 construct: T49I
# Protocol: as §1, §2
# hMPV067 = target: T25, hMPV067 (hMPV A, UniProt Q6WB98 19-102); assay: BLI, 53C stress
# T25 construct: S149T
# Protocol: as §1, §2
# hMPV068 = target: T26, hMPV068 (hMPV A, UniProt Q6WB98 19-102); assay: BLI, 53C stress
# T26 construct: A159V
# Protocol: as §1, §2
# hMPV069 = target: T27, hMPV069 (hMPV A, UniProt Q6WB98 19-102); assay: BLI, 53C stress
# T27 construct: S291I
# Protocol: as §1, §2
# hMPV071 = target: T28, hMPV071 (hMPV A, UniProt Q6WB98 19-102); assay: BLI, 53C stress
# T28 construct: T365I
# Protocol: as §1, §2
# hMPV075 = target: T29, hMPV075 (hMPV A, UniProt Q6WB98 19-102); assay: BLI, 53C stress
# T29 construct: L473F
# Protocol: as §1, §2
# hMPV077 = target: T30, hMPV077 (hMPV A, UniProt Q6WB98 19-102); assay: BLI, 53C stress
# T30 construct: Q476C, S477C
# Protocol: as §1, §2
# hMPV045 = target: T31, hMPV045 (hMPV A, UniProt Q6WB98 19-102); assay: BLI, 53C stress
# T31 construct: I137C-A159C
# Protocol: as §1, §2
# hMPV046 = target: T32, hMPV046 (hMPV A, UniProt Q6WB98 19-102); assay: BLI, 53C stress
# T32 construct: A140C-S149C
# Protocol: as §1, §2
binder,measurement,setting,value
B1,Response Shift,hMPV078,0.86 nm
same,Response Shift,hMPV079,0.791 nm
same,Response Shift,hMPV081,0.837 nm
same,Response Shift,hMPV082,0.854 nm
same,Response Shift,hMPV083,0.847 nm
same,Response Shift,hMPV084,0.862 nm
same,Response Shift,hMPV085,0.766 nm
same,Response Shift,hMPV086,0.851 nm
same,Response Shift,hMPV087,0.867 nm
same,Response Shift,hMPV088,0.878 nm
same,Response Shift,hMPV089,0.891 nm
same,Response Shift,hMPV090,0.895 nm
same,Response Shift,hMPV097,0.923 nm
same,Response Shift,hMPV A F WT Control,0.898 nm
same,Response Shift,hMPV047,-0.079 nm
same,Response Shift,hMPV049,-0.011 nm
same,Response Shift,hMPV050,-0.032 nm
same,Response Shift,hMPV052,-0.044 nm
same,Response Shift,hMPV053,0.017 nm
same,Response Shift,hMPV058,-0.052 nm
same,Response Shift,hMPV059,-0.051 nm
same,Response Shift,hMPV060,-0.045 nm
same,Response Shift,hMPV062,0.013 nm
same,Response Shift,hMPV063,0.001 nm
same,Response Shift,hMPV066,0.265 nm
same,Response Shift,hMPV067,0.184 nm
same,Response Shift,hMPV068,0.022 nm
same,Response Shift,hMPV069,-0.005 nm
same,Response Shift,hMPV071,-0.046 nm
same,Response Shift,hMPV075,-0.082 nm
same,Response Shift,hMPV077,-0.007 nm
same,Response Shift,hMPV045,-0.048 nm
same,Response Shift,hMPV046,0.196 nm
